# Changes are numbered by the printed parent chain. Non-standard residues stand in square brackets, D forms with d. Nle = CCCC[C@H](N)C(=O)O
# B1: R3P50 (peptide)
# peptide: HSDAVFTDNYTRLRKQMAAKKYLNSILK
# B2: R3P52 (peptide)
# peptide: HSDAVFTDNYTRLRKQMAAKKYLNSIKKKRY
# B3: R3P55 (peptide)
# peptide: B2 peptide with K28N
# B4: R3P56 (peptide)
# peptide: B2 peptide with A19V
# B5: R3P49 (peptide)
# peptide: HSDAVFTDNYTRLRKQMAAKKYLNSIKN
# B6: R3P1 (peptide)
# peptide: Ac-HSDAVFTENYTKLRKQLAAKKYLNDLKKGGT-NH2
# B7: R3P57 (peptide)
# peptide: HSDAVFTDNYTRLRKQMAVKKYLNSIKKKR
# B8: R3P51 (peptide)
# peptide: HSDAVFTDNYTRLRKQMAAKKYLNSIKK
# B9: R3P46 (peptide)
# peptide: HSDAVFTDNYTRLRKQLAVKKYLNSILN
# B10: R3P53 (peptide)
# peptide: B7 peptide with V19A
# B11: R3P54 (peptide)
# peptide: HSDAVFTDNYTRLRKQMAAKKYLNSIKKK
# B12: R3P0 (peptide)
# peptide: Ac-HSDAVFTENYTKLRKQ[Nle]AAKKYLNDLKKGGT-NH2
# B13: R3P48 (peptide)
# peptide: HSDAVFTDNYTRLRKQMAVKKYLNDILN
# B14: R3P47 (peptide)
# peptide: HSDAVFTDNYTRLRKQMAAKKYLNSILN
# Key:
# [1] = molecular target: T1, PACAP-R3 (Homo sapiens, UniProt P41587); assay: Cyclic AMP SPA on CHO cells expressing PACAP R3; assay type: cell-based; set-up: expressed in transfected cells; host or cells: CHO cells (Geneticin selection); conditions: for EC50: cAMP SPA, CHO cells transfected with PACAP-R3, concentration at which 50% of maximum PACAP27 activity is achieved, NA = no detectable activities, read-out: R3 EC50; for R3 Selectivity: ratio of EC50 at R2 versus EC50 at R3
# T1 sequence (P41587 24-438): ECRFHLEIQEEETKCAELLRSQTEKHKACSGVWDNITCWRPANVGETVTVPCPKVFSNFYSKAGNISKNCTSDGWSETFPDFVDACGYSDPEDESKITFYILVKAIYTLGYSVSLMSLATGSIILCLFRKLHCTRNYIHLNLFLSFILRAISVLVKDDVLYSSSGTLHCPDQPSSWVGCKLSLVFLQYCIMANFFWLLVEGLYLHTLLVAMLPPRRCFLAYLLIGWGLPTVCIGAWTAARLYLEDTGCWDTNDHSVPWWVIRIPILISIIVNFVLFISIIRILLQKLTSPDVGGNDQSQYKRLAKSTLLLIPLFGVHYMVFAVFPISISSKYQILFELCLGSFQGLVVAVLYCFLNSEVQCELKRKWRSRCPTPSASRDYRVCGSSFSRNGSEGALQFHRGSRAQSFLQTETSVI
# Procedure: CHO cells expressing the PACAP R3 were plated in 96-well plates (Costar) at 8×10^4 cell/well and grown at 37 C. for 24 hours in α MEM+nucleosides+glutamine (Giobco BRL), 10% FBS, 100 μg/ml Pen/Strep, 0.3 mg/ml glutamine, 1 mM HEPES, 0.5 mg/ml Geneticin (Gibco BRL). The media was removed and the plates were washed with PBS. The cells were incubated with a peptide, in Hepes-PBS-BSA with 0.4 mg/mlSoybean Trypsin Inhibitor, 0.5 mg/ml Bacitracin, 100 uM IBMX, for 15 min at 37 C. Cyclic AMP in the cell extracts was quantitated using the cAMP SPA direct screening assay system (Amersham Pharmacia Biotech Inc, Piscataway, N.J.,). The peptides shown in Table 3 were assayed for cAMP activity.
# EC50 is defined as the concentration of the polypeptide at which 50% of maximum PACAP27 activity is achieved. “NA” denotes no detectable activities. “R3 Selectivity” is derived from the ratio of EC50 at R2 versus EC50 at R3.
# [2] = molecular target: T2, PACAP-R3 (human, UniProt P41587 24-438); assay: cell-based or functional assay
# T2 sequence (looked up): T1 sequence (P41587 24-438)
Molecule,EC50 [1] [pM],R3 Selectivity [1],R3 EC50 [2] [pM],R3 Selectivity [2]
CC[C@H](C)[C@H](NC(=O)[C@@H](NC(=O)[C@H](CC(N)=O)NC(=O)[C@H](CC(C)C)NC(=O)[C@H](Cc1ccc(O)cc1)NC(=O)[C@H](CCCCN)NC(=O)[C@H](CCCCN)NC(=O)[C@H](C)NC(=O)[C@H](C)NC(=O)[C@H](CCSC)NC(=O)[C@H](CCC(N)=O)NC(=O)[C@H](CCCCN)NC(=O)[C@H](CCCNC(=N)N)NC(=O)[C@H](CC(C)C)NC(=O)[C@H](CCCNC(=N)N)NC(=O)[C@@H](NC(=O)[C@H](Cc1ccc(O)cc1)NC(=O)[C@H](CC(N)=O)NC(=O)[C@H](CC(=O)O)NC(=O)[C@@H](NC(=O)[C@H](Cc1ccccc1)NC(=O)[C@@H](NC(=O)[C@H](C)NC(=O)[C@H](CC(=O)O)NC(=O)[C@H](CO)NC(=O)[C@@H](N)Cc1c[nH]cn1)C(C)C)[C@@H](C)O)[C@@H](C)O)[C@@H](C)O)C(=O)N[C@@H](CCCCN)C(=O)N[C@@H](CC(N)=O)C(=O)N[C@@H](CCCCN)C(=O)N[C@@H](CCCNC(=N)N)C(=O)N[C@@H](Cc1ccc(O)cc1)C(=O)O [Peptide R3P70],400,,,
CSCC[C@H](NC(=O)[C@H](CCC(N)=O)NC(=O)[C@H](CCCCN)NC(=O)[C@H](CCCNC(=N)N)NC(=O)[C@H](Cc1ccc(O)cc1)NC(=O)[C@H](CCCNC(=N)N)NC(=O)[C@H](CO)NC(=O)[C@H](Cc1ccc(O)cc1)NC(=O)[C@H](CO)NC(=O)[C@H](CC(=O)O)NC(=O)[C@@H](NC(=O)[C@H](Cc1ccccc1)NC(=O)[C@H](CCCCN)NC(=O)CNC(=O)[C@H](CC(=O)O)NC(=O)[C@H](CO)NC(=O)[C@@H](N)Cc1c[nH]cn1)[C@@H](C)O)C(=O)N[C@@H](C)C(=O)N[C@H](C(=O)N[C@@H](CCCCN)C(=O)N[C@@H](CCCCN)C(=O)N[C@@H](Cc1ccc(O)cc1)C(=O)N[C@@H](CC(C)C)C(=O)N[C@@H](C)C(=O)N[C@@H](C)C(=O)N[C@H](C(=O)N[C@@H](CC(C)C)C(N)=O)C(C)C)C(C)C [PAC5],700,,,
CC[C@H](C)[C@H](NC(=O)[C@H](CO)NC(=O)[C@H](CC(N)=O)NC(=O)[C@H](CC(C)C)NC(=O)[C@H](Cc1ccc(O)cc1)NC(=O)[C@H](CCCCN)NC(=O)[C@H](CCCCN)NC(=O)[C@H](CO)NC(=O)[C@H](C)NC(=O)[C@H](CCSC)NC(=O)[C@H](CCC(N)=O)NC(=O)[C@H](CCCCN)NC(=O)[C@H](CCCNC(=N)N)NC(=O)[C@H](CC(C)C)NC(=O)[C@H](CCCNC(=N)N)NC(=O)[C@@H](NC(=O)[C@H](Cc1ccc(O)cc1)NC(=O)[C@H](CC(N)=O)NC(=O)[C@H](CC(=O)O)NC(=O)[C@@H](NC(=O)[C@H](Cc1ccccc1)NC(=O)[C@@H](NC(=O)[C@H](C)NC(=O)[C@H](CC(=O)O)NC(=O)[C@H](CO)NC(=O)[C@@H](N)Cc1c[nH]cn1)C(C)C)[C@@H](C)O)[C@@H](C)O)C(=O)N[C@@H](CCCCN)C(=O)N[C@@H](CC(N)=O)C(=O)N[C@@H](CCCCN)C(=O)N[C@@H](CCCNC(=N)N)C(=O)O [Peptide R3P111],3000,,,
CC[C@H](C)[C@H](NC(=O)CNC(=O)[C@H](CC(=O)O)NC(=O)[C@H](CO)NC(=O)[C@@H](N)Cc1c[nH]cn1)C(=O)N[C@@H](Cc1ccccc1)C(=O)N[C@H](C(=O)N[C@@H](CC(=O)O)C(=O)N[C@@H](CO)C(=O)N[C@@H](CCCCN)C(=O)N[C@@H](CO)C(=O)N[C@@H](CCCNC(=N)N)C(=O)N[C@@H](Cc1ccc(O)cc1)C(=O)N[C@@H](CCCNC(=N)N)C(=O)N[C@@H](CCCCN)C(=O)N[C@@H](CCC(N)=O)C(=O)N[C@@H](CCSC)C(=O)N[C@@H](C)C(=O)N[C@H](C(=O)N[C@@H](CCCCN)C(=O)N[C@@H](CCCCN)C(=O)N[C@@H](Cc1ccc(O)cc1)C(=O)N[C@@H](CC(C)C)C(=O)N[C@@H](C)C(=O)N[C@@H](C)C(=O)N[C@H](C(=O)N[C@@H](CC(C)C)C(N)=O)C(C)C)C(C)C)[C@@H](C)O [PAC10],,4,,
CC[C@H](C)[C@H](NC(=O)[C@@H](NC(=O)[C@H](CC(N)=O)NC(=O)[C@H](CC(C)C)NC(=O)[C@H](Cc1ccc(O)cc1)NC(=O)[C@H](CCCCN)NC(=O)[C@H](CCCCN)NC(=O)[C@H](C)NC(=O)[C@H](C)NC(=O)[C@H](CC(C)C)NC(=O)[C@H](CCC(N)=O)NC(=O)[C@H](CCCCN)NC(=O)[C@H](CCCNC(=N)N)NC(=O)[C@H](CC(C)C)NC(=O)[C@H](CCCNC(=N)N)NC(=O)[C@@H](NC(=O)[C@H](Cc1ccc(O)cc1)NC(=O)[C@H](CCC(N)=O)NC(=O)[C@H](CC(=O)O)NC(=O)[C@@H](NC(=O)[C@H](Cc1ccccc1)NC(=O)[C@@H](NC(=O)[C@H](C)NC(=O)[C@H](CC(=O)O)NC(=O)[C@H](CO)NC(=O)[C@@H](N)Cc1c[nH]cn1)C(C)C)[C@@H](C)O)[C@@H](C)O)[C@@H](C)O)C(=O)N[C@@H](CCCCN)C(=O)N[C@@H](CC(N)=O)C(=O)N[C@@H](CCCCN)C(=O)N[C@@H](CCCNC(=N)N)C(=O)N[C@@H](Cc1ccc(O)cc1)C(=O)O [Peptide R3P72],160,,,
H-HSDAVFTDNYTRLRKQMAGKKYLNSIQNRI-OH [rR3P185],4500,40,,
B1,,,130,6
B2,,,400,> 250
B3,,,170,280
B4,,,400,100
B5,,,270,30
B6,,,2000,> 50
B7,,,230,190
B8,,,260,90
B9,,,60,7
B10,,,200,2500
B11,,,500,> 200
B12,,,400,> 250
B13,,,130,8
B14,,,120,6
